Experimental findings from PMC8085772 (The Journal of Cell Biology, 2021) are described below.

Series [1] concerns the molecule itself. Nature of the series: non-reducing SDS-PAGE with immunoblot. For orientation: A western blot detects proteins with antibodies after separation by electrophoresis.
Series [2] deals with the molecule itself. Nature of the series: non-reducing SDS-PAGE with Coomassie staining + mass spectrometry of the bands.

B1: his-GB1-tagged C-domain of CRT_(Del52) (domain or fragment, human)
chain: MKDKQDEEQRTRRMMRTKMRMRRMRRTRRKMRRKMSPARPRTSCREACLQGWTEA
As for B1, in series [1], the stoichiometry N – broadly, the number of molecules, sites or subunits per partner or assembly – turned out to be 2.

B2: FLAG-His-tagged full-length CRT_(Del52), purified (natural protein, human)
chain: EPAVYFKEQFLDGDGWTSRWIESKHKSDFGKFVLSSGKFYGDEEKDKGLQTSQDARFYALSASFEPFSNKGQTLVVQFTVKHEQNIDCGGGYVKLFPNSLDQTDMHGDSEYNIMFGPDICGPGTKKVHVIFNYKGKNVLINKDIRCKDDEFTHLYTLIVRPDNTYEVKIDNSQVESGSLEDDWDFLPPKKIKDPDASKPEDWDERAKIDDPTDSKPEDWDKPEHIPDPDAKKPEDWDEEMDGEWEPPVIQNPEYKGEWKPRQIDNPDYKGTWIHPEIDNPEYSPDPSIYAYDNFGVLGLDLWQVKSGTIFDNFLITNDEAYAEEFGNETWGVTKAAEKQMKDKQDEEQRTRRMMRTKMRMRRMRRTRRKMRRKMSPARPRTSCREACLQGWTEA
With B2, in series [2], the “stoichiometry N” value came out at 2.
